Test system: human periosteum derived cells (hPDCs)
Experiment: Gene expression of bone markers in hPDCs in 2D culture (Taqman PCR)
Type: cell-based
Details: two stage protocol, six factors minus one, 4 days
Protocol: Same experimental design as in A. C) Identification of factors involved in osteoblast maturation. hPDCs were treated with OM and TGFβ1 for 6 days, followed by stimulation with GM (negative control), GM containing six factors or GM supplement with six minus one factor for 4 days. The factors are ascorbic acid (Asc. Ac., 57 μM), TNFα (50 ng/ml), IL6 (10 ng/ml), EGF (20 ng/ml), Ca (6 mM) and Pi (4 mM). To evaluate osteoblast maturation, gene expression of RUNX2, OSX, DLX5, iBSP, OC and RANKL is measured with Taqman PCR. […] Gene expression is expressed as fold increase as compared to the GM condition. […] Gene expression is expressed as fold increase as compared to hPDCs cultured in OM/TGFβ1 (n=3, error bars: standard deviations, *p≦00.05, Mann-Whitney U test).
Cell culture. […] For in vitro osteogenic differentiation assays, passage 6 to passage 9 hPDCs (pool of four different donors) were seeded at 3000 cells/cm^2 in either 96-well plates to assess proliferation and alkaline phosphatase activity or in the middle eight wells of a 24-well plate for quantifying gene expression. […]
Quantitative PCR. […]

B1: EGF: growth factor ligand, 20 ng/ml (protein, UniProt P01133 23-1207, looked up)
Pro-epidermal growth factor: PQHWSCPEGTLAGNGNSTCVGPAPFLIFSHGNSIFRIDTEGTNYEQLVVDAGVSVIMDFHYNEKRIYWVDLERQLLQRVFLNGSRQERVCNIEKNVSGMAINWINEEVIWSNQQEGIITVTDMKGNNSHILLSALKYPANVAVDPVERFIFWSSEVAGSLYRADLDGVGVKALLETSEKITAVSLDVLDKRLFWIQYNREGSNSLICSCDYDGGSVHISKHPTQHNLFAMSLFGDRIFYSTWKMKTIWIANKHTGKDMVRINLHSSFVPLGELKVVHPLAQPKAEDDTWEPEQKLCKLRKGNCSSTVCGQDLQSHLCMCAEGYALSRDRKYCEDVNECAFWNHGCTLGCKNTPGSYYCTCPVGFVLLPDGKRCHQLVSCPRNVSECSHDCVLTSEGPLCFCPEGSVLERDGKTCSGCSSPDNGGCSQLCVPLSPVSWECDCFPGYDLQLDEKSCAASGPQPFLLFANSQDIRHMHFDGTDYGTLLSQQMGMVYALDHDPVENKIYFAHTALKWIERANMDGSQRERLIEEGVDVPEGLAVDWIGRRFYWTDRGKSLIGRSDLNGKRSKIITKENISQPRGIAVHPMAKRLFWTDTGINPRIESSSLQGLGRLVIASSDLIWPSGITIDFLTDKLYWCDAKQSVIEMANLDGSKRRRLTQNDVGHPFAVAVFEDYVWFSDWAMPSVMRVNKRTGKDRVRLQGSMLKPSSLVVVHPLAKPGADPCLYQNGGCEHICKKRLGTAWCSCREGFMKASDGKTCLALDGHQLLAGGEVDLKNQVTPLDILSKTRVSEDNITESQHMLVAEIMVSDQDDCAPVGCSMYARCISEGEDATCQCLKGFAGDGKLCSDIDECEMGVPVCPPASSKCINTEGGYVCRCSEGYQGDGIHCLDIDECQLGEHSCGENASCTNTEGGYTCMCAGRLSEPGLICPDSTPPPHLREDDHHYSVRNSDSECPLSHDGYCLHDGVCMYIEALDKYACNCVVGYIGERCQYRDLKWWELRHAGHGQQQKVIVVAVCVVVLVMLLLLSLWGAHYYRTQKLLSKNPKNPYEESSRDVRSRRPADTEDGMSSCPQPWFVVIKEHQDLKNGGQPVAGEDGQAADGSMQPTSWRQEPQLCGMGTEQGCWIPVSSDKGSCPQVMERSFHMPSYGTQTLEGGVEKPHSLLSANPLWQQRALDPPHQMELTQ
modifications: Pro-epidermal growth factor
notes: growth factor ligand, 20 ng/ml
  RANKL expression in medium devoid of the factor: lower levels
  role in DLX5 transcription: required

Source: US20150307846A1, “GROWTH FACTOR COCKTAIL TO ENHANCE OSTEOGENIC DIFFERENTIATION OF MESENCHYMAL CELLS” (University of Pennsylvania, priority 2012, published 2015)
